Measurements: patent US20130288305A1 (AVEO PHARMACEUTICALS, published 2013)

T1: recombinant human FGFR1 beta (IIIb)/Fc Chimera (human, UniProt P11362-19 120-376)
T1 construct: Treated as one reagent; also called rhFGFR1β-IIIc-Fc; rhFGFR1β-IIIb-Fc; Fc part of the bought chimera not given
T1 sequence (looked up): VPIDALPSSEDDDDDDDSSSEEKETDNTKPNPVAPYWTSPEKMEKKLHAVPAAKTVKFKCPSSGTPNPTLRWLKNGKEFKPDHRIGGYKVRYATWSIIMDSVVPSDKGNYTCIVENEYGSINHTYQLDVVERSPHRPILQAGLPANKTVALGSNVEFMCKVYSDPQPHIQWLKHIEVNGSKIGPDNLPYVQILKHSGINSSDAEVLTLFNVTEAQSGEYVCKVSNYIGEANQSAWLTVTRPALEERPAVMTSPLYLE


Key:
[1] = target: T2, recombinant human FGFR2 beta (IIIb)/Fc in which the Fc region was removed enzymatically (human, UniProt P21802-3 152-378, limits assumed); assay: SPR (Biacore T100), antibody captured on anti-human IgG Fc, rhFGFR2β-IIIb-cleaved as analyte, 37 C
T2 construct: also called rhFGFR2β-IIIb-cleaved; monomeric recombinant human FGFR2 beta IIIb
Method: (§1) Goat anti-human IgG Fc (Jackson ImmunoResearch, Catalog No. 109-005-098) was immobilized on carboxymethylated dextran CM4 sensor chips (Biacore) by amine coupling (Biacore) using a standard coupling protocol according to the vendor's instructions. The analyses were performed at 25° C. and 37° C. using PBS (Invitrogen) containing 0.05% surfactant P20 (Biacore) as running buffer.
(§2) Purified antibodies were captured in individual flow cells at a flow rate of 10 μl/minute. Injection time was varied for each antibody to yield an Rₘₐₓ between 30 and 90 RU. […] The dissociation phase was monitored for up to 900 seconds. The surface was then regenerated with two 60 second injections of glycine pH 2.25 (made from glycine pH 2.0 (Biacore) and pH 2.5 (Biacore)) at 30 μl/minute. Experiments were conducted using concentrations of rhFGFR2β-IIIb-cleaved between 20 and 1.25 nM (a two-fold serial dilution).

[2] = target: T2, recombinant human FGFR2 beta (IIIb)/Fc …; assay: SPR (Biacore T100), antibody captured on anti-human IgG Fc, rhFGFR2β-IIIb-cleaved as analyte, 25 C
Method: as §1, §2
(§3) Kinetic parameters were determined using the kinetic function of the BlAevaluation software (Biacore) with double reference subtraction. Kinetic parameters for each antibody, kₐ (association rate constant), kd (dissociation rate constant) and KD (equilibrium dissociation constant) were determined.

[3] = target: T2, recombinant human FGFR2 beta (IIIb)/Fc …; assay: SPR (Biacore T100), antibody captured on anti-mouse IgG, FGFR protein as analyte, 25 C
Method: (§4) Rabbit anti-mouse IgGs (GE Healthcare) were immobilized on carboxymethylated dextran CM4 sensor chips (GE Healthcare) by amine coupling, using a standard coupling protocol, according to the vendor's instructions (GE Healthcare). The analyses were performed at 25° C. and 37° C., using PBS containing 0.05% surfactant P20 (GE Healthcare) as running buffer.
(§5) The antibodies were captured in individual flow cells at a flow rate of 10 μl/min. Injection time was varied for each antibody to yield an Rmax between 30 and 60 RU. […] The dissociation phase was monitored for up to 900 seconds. The surface was then regenerated with two 60-second injections of 10 mM Glycine-HCl (pH 1.7), at a flow rate of 60 μl/minute. The FGFR protein concentration range tested was 50 to 3.125 nM (two-fold dilutions).
as §3, with “BlAevalutation” for “BlAevaluation”, “(GE Healthcare)” for “(Biacore)”

[4] = target: T3, recombinant human FGFR2 beta (IIIb)/Fc Chimera (human, UniProt P21802-3 152-378); assay: as above
T3 construct: Bought from R&D Systems; the IIIb isoform applies; also called rhFGFR2β-IIIb-Fc; human FGFR2-IIIb; Fc part of the bought chimera not given
Method: as §4, §5
as §3, with “BlAevalutation” for “BlAevaluation”, “(GE Healthcare)” for “(Biacore)”

[5] = target: T1, recombinant human FGFR1 beta (IIIb)/Fc …; assay: as above
Method: as §4, §5
as §3, with “BlAevalutation” for “BlAevaluation”, “(GE Healthcare)” for “(Biacore)”

[6] = target: T2, recombinant human FGFR2 beta (IIIb)/Fc …; assay: SPR (Biacore T100), antibody captured on anti-mouse IgG, FGFR protein as analyte, 37 C
Method: as §4, §5
as §3, with “BlAevalutation” for “BlAevaluation”, “(GE Healthcare)” for “(Biacore)”

[7] = target: T3, recombinant human FGFR2 beta (IIIb)/Fc …; assay: as above
Method: as §4, §5
as §3, with “BlAevalutation” for “BlAevaluation”, “(GE Healthcare)” for “(Biacore)”

T2 sequence (P21802 other isoform, or with tags, fused parts or gaps limits assumed): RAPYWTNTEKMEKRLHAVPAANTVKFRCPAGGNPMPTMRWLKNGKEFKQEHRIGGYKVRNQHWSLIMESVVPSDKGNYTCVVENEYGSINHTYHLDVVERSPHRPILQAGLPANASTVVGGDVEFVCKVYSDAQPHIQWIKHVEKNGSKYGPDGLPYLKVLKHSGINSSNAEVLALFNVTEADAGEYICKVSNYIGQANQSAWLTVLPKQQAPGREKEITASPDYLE
T3 sequence (P21802 other isoform, or with tags, fused parts or gaps mutant): as the sequence (P21802 other isoform, or with tags, fused parts or gaps limits assumed) above

| Binder | Kd [1] [nM] | koff [1] [s⁻¹] | kon [1] [M⁻¹ s⁻¹] | Kd [2] [nM] | koff [2] [s⁻¹] | kon [2] [M⁻¹ s⁻¹] | Kd [3] [nM] | Kd [4] [nM] | koff [4] [s⁻¹] | kon [4] [M⁻¹ s⁻¹] | binding result [5] | Kd [6] [nM] | koff [6] [s⁻¹] | kon [6] [M⁻¹ s⁻¹] | Kd [7] [nM] |
| --- | --- | --- | --- | --- | --- | --- | --- | --- | --- | --- | --- | --- | --- | --- | --- |
| Hu4B9-82 (antibody, Humanized IgG1 kappa) heavy: not shown light: EIVLTQSPATLSLSPGERATLSCRASSSVNYMYWYQQKPGQAPRPWIYLTSNRATGIPARFSGSGSGTDYTLTISSLEPEDFAVYYCQQWSSNPYTFGQGTKLEIKRTVAAPSVFIFPPSDEQLKSGTASVVCLLNNFYPREAKVQWKVDNALQSGNSQESVTEQDSKDSTYSLSSTLTLSKADYEKHKVYACEVTHQGLSSPVTKSFNRGEC | 0.93 | 0.00036 | 400000 | 0.49 | 9.4e-05 | 190000 |  |  |  |  |  |  |  |  |  |
| Hu4B9-83 (antibody, Humanized IgG1 kappa) heavy: not shown light: EIVLTQSPATLSLSPGERATLSCRASSSVNYMYWYQQKPGQAPRPWIYLTSNRATGIPARFSGSGSGTDFTLTISSLEPEDFAVYYCQQWSSNPYTFGQGTKLEIKRTVAAPSVFIFPPSDEQLKSGTASVVCLLNNFYPREAKVQWKVDNALQSGNSQESVTEQDSKDSTYSLSSTLTLSKADYEKHKVYACEVTHQGLSSPVTKSFNRGEC | 0.92 | 0.00029 | 320000 | 0.35 | 8.9e-05 | 260000 |  |  |  |  |  |  |  |  |  |
| Hu4B9-65 (antibody, Humanized IgG1 kappa) heavy: not shown light: EIVLTQSPATLSLSPGERATLSCRASSSVNYMYWYQQKPGQAPRPWIYLTSNRATGVPARFSGSGSGTDYTLTISSLEPEDFAVYYCQQWSSNPYTFGQGTKLEIKRTVAAPSVFIFPPSDEQLKSGTASVVCLLNNFYPREAKVQWKVDNALQSGNSQESVTEQDSKDSTYSLSSTLTLSKADYEKHKVYACEVTHQGLSSPVTKSFNRGEC | 0.89 | 0.00028 | 370000 | 0.26 | 6.5e-05 | 240000 |  |  |  |  |  |  |  |  |  |
| antibody 4B9 (antibody, Murine IgG1 kappa from hybridoma clone 4B9; also called GP369; monoclonal antibody 4B9) heavy: EVQLQQSGTVLARPGASVKMSCKTSGYTFTSYWMHWVKQRPGQGLEWIGAIYPGNSDTDYSQKFKGKATLTAVTSATTAYMELSSLTNEDSAVYYCSKFDYWGQGTTLTVSSAKTTPPSVYPLAPGSAAQTNSMVTLGCLVKGYFPEPVTVTWNSGSLSSGVHTFPAVLQSDLYTLSSSVTVPSSTWPSQTVTCNVAHPASSTKVDKKIVPRDCGCKPCICTVPEVSSVFIFPPKPKDVLTITLTPKVTCVVVDISKDDPEVQFSWFVDDVEVHTAQTQPREEQFNSTFRSVSELPIMHQDWLNGKEFKCRVNSAAFPAPIEKTISKTKGRPKAPQVYTIPPPKEQMAKDKVSLTCMITDFFPEDITVEWQWNGQPAENYKNTQPIMDTDGSYFVYSKLNVQKSNWEAGNTFTCSVLHEGLHNHHTEKSLSHSPGK light: QIVLTQSPALMSASPGEKVTMTCSASSSVNYMYWYQQKPRSSPKPWIYLTSNLASGVPARFSGRGSGTSYSLTISSMEAEDAATYYCQQWSSNPYTFGGGTKLEIKRADAAPTVSIFPPSSEQLTSGGASVVCFLNNFYPRDINVKWKIDGSERQNGVLNSWTDQDSKDSTYSMSSTLTLTKDEYERHNSYTCEATHKTSTSPIVKSFNRNEC |  |  |  |  |  |  | 4.2 | 0.61 | 4.6e-05 | 94000 | no binding (tested: 50 to 3.125 nM tested) | 1.2 | 0.000223 | 254000 | 2.96 |
